Two proteins from patent US10822723 can be followed below.

In data set [1] the target is GST-iBox, recombinant 38 amino acid Inka box, Inka1 (166-203) [GST: P08515].
For data set [2], the target named is 13aa synthetic peptide of the Inka1 iBox with Pro(0)Ser substitution.
Data set [3] deals with 13aa synthetic peptide of the Inka1 iBox-C with Pro(0)Ser substitution.
Data set [4] addresses 13aa synthetic peptide of the PAK4 AID with Pro(0)Ser substitution.

B1: 6His-PAK1 (activated), PAK1 (1-545) (protein)
chain: MSNNGLDIQDKPPAPPMRNTSTMIGAGSKDAGTLNHGSKPLPPNPEEKKKKDRFYRSILPGDKTNKKKEKERPEISLPSDFEHTIHVGFDAVTGEFTGMPEQWARLLQTSNITKSEQKKNPQAVLDVLEFYNSKKTSNSQKYMSFTDKSAEDYNSSNALNVKAVSETPAVPPVSEDEDDDDDDATPPPVIAPRPEHTKSVYTRSVIEPLPVTPTRDVATSPISPTENNTTPPDALTRNTEKQKKKPKMSDEEILEKLRSIVSVGDPKKKYTRFEKIGQGASGTVYTAMDVATGQEVAIKQMNLQQQPKKELIINEILVMRENKNPNIVNYLDSYLVGDELWVVMEYLAGGSLTDVVTETCMDEGQIAAVCRECLQALEFLHSNQVIHRDIKSDNILLGMDGSVKLTDFGFCAQITPEQSKRSTMVGTPYWMAPEVVTRKAYGPKVDIWSLGIMAIEMIEGEPPYLNENPLRALYLIATNGTPELQNPEKLSAIFRDFLNRCLEMDVEKRGSAKELLQHQFLKIAKPLSSLTPLIAAAKEATKNNH
Regarding B1, the “kinase activity, phosphorylation of GST-Raf13 (in vitro kinase assay)” value in data set [1] was “does not affect PAK1”.

B2: 6His-PAK4cat, recombinant catalytic domain of PAK4 (286-591) (protein)
chain: PPGPRSPQREPQRVSHEQFRAALQLVVDPGDPRSYLDNFIKIGEGSTGIVCIATVRSSGKLVAVKKMDLRKQQRRELLFNEVVIMRDYQHENVVEMYNSYLVGDELWVVMEFLEGGALTDIVTHTRMNEEQIAAVCLAVLQALSVLHAQGVIHRDIKSDSILLTHDGRVKLSDFGFCAQVSKEVPRRKSLVGTPYWMAPELISRLPYGPEVDIWSLGIMVIEMVDGEPPYFNEPPLKAMKMIRDNLPPRLKNLHKVSPSLKGFLDRLLVRDPAQRATAAELLKHPFLAKAGPPASIVPLMRQNRTR
For the protein B2, the “phosphorylation of synthetic 13mer peptides in an array” value in data set [2] is listed as “Inka1-derived sequences were significantly better substrates”; in data set [3] it was “Inka1-derived sequences were significantly better substrates”; in data set [4] it was “The AID-based peptide was phosphorylated as efficiently as Raf1 Ser338”. The “kinase activity, phosphorylation of GST-Raf13 (in vitro kinase assay)” value in data set [1] is listed as “is a potent of PAK4cat inhibitor in vitro”.
